According to PMC6086316, “Interactions between the Aggregatibacter actinomycetemcomitans secretin HofQ and host cytokines indicate a link between natural competence and interleukin-8 uptake” (Virulence, 2018):
Changes are numbered by the printed parent chain. Names may count otherwise.

B1: emHofQ_L1 (H136A, F137A, K139A) (domain or fragment)
chain: QNPVFSIRLKQAPLVPTLQQLALAHNTNLIIDDELQGTVSLQLENVDLDQLFRSVAKIKQLDLWQENGIYYFTKGDTNTKFAGKMEEPFPLSLPMAEEPAQLNTATIKLAAAAASEVMKSLTGGSGSLLSPNGSITFDDRSNLLLIQDEPRSVRNIKKLIKELDKPIEQ
notes: they already carry the substitutions; Secretin HofQ of Aggregatibacter actinomycetemcomitans, extramembranous domain, residues 27-195; The printed gene begins with ATG (Met, in the NdeI site) and ends with CTC GAG (Leu-Glu, XhoI site) before the His tag of pET36b; also called emHofQ mutant L1; source: E. coli BL21 CodonPlus (DE3) RIL, induced overnight at 16°C, purified (HisTrap, size-exclusion …)
B2: emHofQ_L1L2 (H136A, F137A, K139A, D165A, R166A) (domain or fragment)
chain: B1 chain with D139A, R140A
notes: they already carry the substitutions; Secretin HofQ of Aggregatibacter actinomycetemcomitans, extramembranous domain, residues 27-195; The printed gene begins with ATG (Met, in the NdeI site) and ends with CTC GAG (Leu-Glu, XhoI site) before the His tag of pET36b; also called emHofQ mutant L1L2; source: E. coli BL21 CodonPlus (DE3) RIL, induced overnight at 16°C, purified (HisTrap, size-exclusion …)
B3: emHofQ_L2 (D165A, R166A) (domain or fragment)
chain: B1 chain with A110H, A111F, A113K, D139A, R140A
notes: they already carry the substitutions; Secretin HofQ of Aggregatibacter actinomycetemcomitans, extramembranous domain, residues 27-195; The printed gene begins with ATG (Met, in the NdeI site) and ends with CTC GAG (Leu-Glu, XhoI site) before the His tag of pET36b; also called emHofQ mutant L2; source: E. coli BL21 CodonPlus (DE3) RIL, induced overnight at 16°C, purified (HisTrap, size-exclusion …)

Molecular target: T1, human mature interleukin-1β (IL-1β, amino acids 117-269) (human)
T1 construct: Human mature IL-1β, amino acids 117-269; Expressed from pET-28bTEV; source: E. coli BL21 CodonPlus (DE3) RIL, purified (HisTrap, TEV cleavage, size-exclusion chromatography); not shown: His6, N-terminal, cleaved
Assay: time-resolved fluorometric immunoassay (TRFIA); 60 pmol IL-8 or IL-1β coated on wells; emHofQ wild type and mutants 5 nM-2 μM, 4°C overnight; Eu-N1 anti-6xHis antibody; apparent Kd
Details: both partners purified

T1 sequence (chain, as listed by the source): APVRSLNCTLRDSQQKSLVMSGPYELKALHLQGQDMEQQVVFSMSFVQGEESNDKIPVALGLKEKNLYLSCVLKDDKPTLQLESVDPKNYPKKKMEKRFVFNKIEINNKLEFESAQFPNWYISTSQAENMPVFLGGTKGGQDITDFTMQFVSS

B1 and B2 are within error of each other in Kd: 450 ± 160 nM for the first, 440 ± 70 nM for the second.

Binder B3 has a Kd of 330 ± 70 nM.
